The chains are these.
B1: Twister Ribozyme (parent)
chain: AACACUGCCAAUGCCGGUCCCAAGCCCGGAUAAAAGUGGAGGGGGCGG

Variants of B1 are the subject of this data set. Description: self-cleavage, relative activity (ratio to wild type); higher = more cleavage; co-transcriptional.
For the variant A1C C21G, the self-cleavage was 0.0972.
To A1C C21U belongs 0.125; to A1C C21A, 0.154; to A2C C8G, 0.0519.
In the case of A1U G28U, the self-cleavage stood at 0.0658.
In the case of A1U G28C, the self-cleavage was 0.0644.
Take A2C U18A: the self-cleavage was 0.0761.
With A2C U18G, the self-cleavage was 0.0901.
Regarding A2C U18C, the self-cleavage worked out at 0.0934.
Regarding A2C A33G, the self-cleavage came to 0.107.
To A2C A33C belongs 0.0306; to A2C A33U, 0.0693.
For the variant A1C A2G, the self-cleavage worked out at 1.25.
As for A1C A2U, the self-cleavage was 0.346.
On to A1C A2C, for which the self-cleavage came to 1.36.
For A1U A11C, the self-cleavage was 0.0741.
In the case of A1U A11G, the self-cleavage turned out to be 0.0739.
In the case of A1C C20A, the self-cleavage was 0.104.
Consider A1G U6G, for which the self-cleavage was found to be 0.0944.
In the case of A1G U6C, the self-cleavage was 0.202.
For A1G U6A, the self-cleavage stood at 0.346.
As for A1U G39A, the self-cleavage turned out to be 0.0588.
To A1U G39C belongs 0.0764.
As to A1G A33U, the self-cleavage is 0.512.
To A1G A33G belongs 0.499.
Consider A1U A34C, for which the self-cleavage worked out at 0.092.
To A1C C19A belongs 0.123; to A1C C19U, 0.205.
On to A2C G13U, for which the self-cleavage was 0.0549.
For A2C G13C, the self-cleavage worked out at 0.0312.
Turning to A2C G24A, the self-cleavage was found to be 0.0674.
On to A1G G17A, for which the self-cleavage was determined as 0.367.
On to A1U G45C, for which the self-cleavage amounted to 0.0573.
For A1U G45U, the self-cleavage amounted to 0.0565.
In the case of A1C C14A, the self-cleavage amounted to 0.222.
Take A1C C14U: the self-cleavage was determined as 0.19.
To A1G G41U belongs 0.228.
A1U G24A: the self-cleavage was 0.062.
As for A1U A2C, the self-cleavage amounted to 0.118.
A1U A2G: the self-cleavage came to 0.0622.
With A1G G24A, the self-cleavage came to 0.144.
Take A1G G24C: the self-cleavage stood at 0.18.
To A1G C3A belongs 0.349; to A2G G7U, 0.0648.
Take A1C U18A: the self-cleavage amounted to 0.14.
With A1C U18C, the self-cleavage is 0.17.
Take A1G U31A: the self-cleavage came to 0.24.
Regarding A1G U31G, the self-cleavage was 0.533.
As for A1G U31C, the self-cleavage came out at 0.409.
Regarding A2C G16C, the self-cleavage amounted to 0.0398.
Regarding A2C G16U, the self-cleavage turned out to be 0.0604.
For A2C U6A, the self-cleavage is 0.0688.
A2C U6G: the self-cleavage stood at 0.0861.
Consider A1G A35C, for which the self-cleavage was 0.359.
Consider A1C A34G, for which the self-cleavage is 0.19.
A1C A34U: the self-cleavage came to 0.176.
A1G U12G: the self-cleavage came out at 0.527.
Consider A1G U12C, for which the self-cleavage was 0.45.
To A1G U12A belongs 0.515; to A2C C9U, 0.0433.
For A1G C46U, the self-cleavage came out at 0.393.
With A2C G43C, the self-cleavage was 0.0309.
Turning to A2C G43U, the self-cleavage was found to be 0.0462.
For the variant A2C G43A, the self-cleavage was determined as 0.1.
Turning to A1G G47A, the self-cleavage was determined as 0.334.
To A1G G47C belongs 0.385.
As to A1G G47U, the self-cleavage is 0.278.
On to A1U A40U, for which the self-cleavage stood at 0.0682.
Take A1U A40G: the self-cleavage turned out to be 0.074.
Regarding A1G A22C, the self-cleavage is 0.325.
To A1U C26U belongs 0.0863; to A1U C26G, 0.0605; to A2G C25G, 0.0917.
For A2G C25A, the self-cleavage was determined as 0.127.
With A1U U12G, the self-cleavage is 0.0921.
Regarding A1U U12C, the self-cleavage was 0.0693.
On to A1U U12A, for which the self-cleavage was 0.0685.
As for A1U G42A, the self-cleavage is 0.0707.
As to A1U G42U, the self-cleavage was 0.0745.
To A1G G29A belongs 0.437; to A1G G29C, 0.29; to A1U A4G, 0.0751.
For A1U A4U, the self-cleavage amounted to 0.0259.
Regarding A2G C14A, the self-cleavage is 0.291.
To A1C A30U belongs 0.177; to A1C A30C, 0.199; to A2C C5U, 0.0782.
In the case of A1C A23C, the self-cleavage turned out to be 0.12.
To A1C A23U belongs 0.184.
For A1C A23G, the self-cleavage turned out to be 0.145.
To A2C A35C belongs 0.064; to A2C A35G, 0.0429; to A1G C15G, 0.125.
With A1G C15A, the self-cleavage came to 0.265.
With A2C G42C, the self-cleavage is 0.0693.
Turning to A2C G42A, the self-cleavage is 0.0532.
To A2C G42U belongs 0.0469.
On to A1C G13U, for which the self-cleavage came out at 0.207.
To A1C G13C belongs 0.116.
In the case of A1C C3U, the self-cleavage worked out at 0.208.
For A1C C3A, the self-cleavage was 0.193.
To A1G C21U belongs 0.146.
In the case of A1G C21G, the self-cleavage came to 0.0325.
Consider A2C G28A, for which the self-cleavage worked out at 0.0374.
As for A1U U37A, the self-cleavage stood at 0.0677.
To A1U U37G belongs 0.0556; to A2C A23C, 0.0233; to A1U C9G, 0.0577.
To A1U C15G belongs 0.0744.
To A1U C15A belongs 0.0603; to A2C C19A, 0.0459.
With A2C C19G, the self-cleavage was 0.0832.
To A2C C27A belongs 0.0541; to A1C U37A, 0.148.
Regarding A1G A4U, the self-cleavage came out at 0.235.
Take A1G A4C: the self-cleavage came to 0.0744.
As for A1C G41C, the self-cleavage is 0.14.
In the case of A1C G41U, the self-cleavage turned out to be 0.199.
As to A1C G41A, the self-cleavage is 0.143.
A2C U12A: the self-cleavage turned out to be 0.0702.
For A2C U12C, the self-cleavage was 0.094.
To A1G G38A belongs 0.432; to A2C A34G, 0.0505; to A1G C5U, 0.328.
A1G C5A: the self-cleavage stood at 0.224.
As to A2G G17C, the self-cleavage was 0.0381.
As for A2G G17A, the self-cleavage stood at 0.113.
Take A1U G44U: the self-cleavage is 0.0595.
With A1U G44C, the self-cleavage was 0.0624.
Take A1U A10C: the self-cleavage came to 0.0358.
For the variant A1U A10U, the self-cleavage came to 0.0883.
Take A2C G7U: the self-cleavage was determined as 0.0484.
To A1U G16U belongs 0.0446.
Regarding A1G C14G, the self-cleavage amounted to 0.168.
Consider A1G C14U, for which the self-cleavage was 0.693.
A1G C14A: the self-cleavage was 0.467.
On to A2G A34C, for which the self-cleavage worked out at 0.151.
To A2G A34G belongs 0.192; to A1C G48U, 0.212.
For the variant A1G A11U, the self-cleavage was found to be 0.47.
For the variant A2C A30C, the self-cleavage amounted to 0.0338.
To A1C C46A belongs 0.148; to A1G G36C, 0.227; to A1C C5U, 0.277.
Consider A2G A35G, for which the self-cleavage turned out to be 0.226.
Take A2G A35U: the self-cleavage amounted to 0.211.
On to A1U C20A, for which the self-cleavage was determined as 0.0791.
To A1U C27A belongs 0.0592; to A2C A10C, 0.0739.
On to A2C A10U, for which the self-cleavage is 0.0864.
To A1C A11U belongs 0.176; to A1G G39U, 0.198; to A1G C25G, 0.205.
Take A1G C25A: the self-cleavage was 0.197.
Take A1G A2C: the self-cleavage is 1.43.
With A1G A2U, the self-cleavage was found to be 0.19.
To A2C C21G belongs 0.0366; to A2C C21U, 0.0368; to A2C C14U, 0.0681.
Consider A1C G16U, for which the self-cleavage was 0.189.
To A1C G16C belongs 0.192; to A2G C8G, 0.0347.
Consider A2G C8A, for which the self-cleavage is 0.153.
With A2G C8U, the self-cleavage amounted to 0.194.
On to A1G G44U, for which the self-cleavage turned out to be 0.287.
To A1G G44C belongs 0.251.
On to A1G G28U, for which the self-cleavage came out at 0.428.

Values taken from the RNAGym collection of RNA variant scans (doi:10.7554/elife.80360).
